This note sets out measurements from the DeepSol protein solubility set.

The nature of this series: soluble on expression in E. coli; label from the status in PepcDB or PDB records.
Regarding “MQKIALCITGASGVIYGIKLLQVLEELDFSVDLVISRNAKVVLKEEHSLTFEEVLKGLKNVRIHEENDFTSPLASGSRLVHYRGVYVVPCSTNTLSCIANGINKNLIHRVGEVALKERVPLVLLVREAPYNEIHLENMLKITRMGGVVVPASPAFYHKPQSIDDMINFVVGKLLDVLRIEHNLYKRWRG”, the “soluble on expression in E. coli” value is given as “soluble”.
On to “MSQFAVIIFGDQAKANEASRVLTELQADNSLVLFSQAVIAKDLAGTVSLMAPASGGAVGSAVSGLASRLIGVPVGGHGDLSDAGVLDSFCQEAADALKPGATAIVAEISEDRLGPLNTQMHALGGQVLRSCNSDSEGDEIAKQTARQIANIERLNAEYVRAPQDADKPGETPVDAVTLAPDERASNQSIVKANAEARSAKLSQACGLTKDALG”, for which the “soluble on expression in E. coli” value is reported as “not soluble”.
On to “KTVTPEEKKLVAEKHVDELVQKALVALEEMRKLDQEQVDYIVAKASVAALDAHGELALHAFEETGRGVFEDKATKNLFACEHVVNNMRHTKTVGVIEEDDVTGLTLIAEPVGVVCGITPTTNPTSTAIFKSLISLKTRNPIVFAFHPSAQESSAHAARIVRDAAIAAGAPENCVQWITQPSMEATSALMNHEGVATILATGGNAMVKAAYSCGKPALGVGAGNVPAYVEKSANIRQAAHDIVMSKSFDNGMVCASE”, for which the “soluble on expression in E. coli” value is given as “not soluble”.
As for “MVVMSKVLLNIGCADVDKPGYINVDARKTKVTHLVSNAWDLDCFEENSVHEIYSRHMLEHLNPEYAKLALQKWFYILEPEGKLVVIVPDIEFHARQLLGVSRSSFGDQMEHAFAGFWGWREKERGGSDFDAHQWGYTVATLENEIGAVGFERIERVVEGVDSEPWHLQMTARKPMTSLCCPMDFRGPFPLEHHHHHH”, the “soluble on expression in E. coli” value is “soluble”.
Turning to “KTYGPLKNLPHLEKEQLSQSLWRIADELGPIFRFDFPGVSSVFVSGHNLVAEVCDEKRFDKNLGKGLQKVREFGGDGLFTSWTHEPNWQKAHRILLPSFSQKAMKGYHSMMLDIATQLIQKWSRLNPNEEIDVADDMTRLTLDTIGLCGFNYRFNSFYRDSQHPFITSMLRALKEAMNQSKRLGLQDKMMVKTKLQFQKDIEVMNSLVDRMIAERKANPDENIKDLLSLMLYAKDPVTGETLDDENIRYQIITFLIAGHETTSGLLSFAIYCLLTHPEKLKKAQEEADRVLTDDTPEYKQIQQLKYIRMVLNETLRLYPTAPAFSLYAKEDTVLGGEYPISKGQPVTVLIPKLHRDQNAWGPDAEDFRPERFEDPSSIPHHAYKPFGNGQRACIGMQFALQEATMVLGLVLKHFELINHTGYELKIKEALTIKPDDFKITVKPRKTAAINVQRKEQADIKAETKPKETKPKHGTPLLVLFGSNLGTAEGIAGELAAQGRQMGFTAETAPLDDYIGKLPEEGAVVIVTASYNGAPPDNAAGFVEWLKELEEGQLKGVSYAVFGCGNRSWASTYQRIPRLIDDMMKAKGASRLTAIGEGDAADDFESHRESWENRFWKETMDAFDINEIAQKEDRPSLSITFLSEATETPVAKAYGAFEGIVLENRELQTAASTRSTRHIELEIPAGKTYKEGDHIGILPKNSRELVQRVLSRFGLQSNHVIKVSGSAHMAHLPMDRPIKVVDLLSSYVELQEPASRLQLRELASYTVCPPHQKELEQLVSDDGIYKEQVLAKRLTMLDFLEDYPACEMPFERFLALLPSLKPRYYSISSSPKVHANIVSMTVGVVKASAWSGRGEYRGVASNYLAELNTGDAAACFIRTPQSGFQMPNDPETPMIMVGPGTGIAPFRGFIQARSVLKKEGSTLGEALLYFGCRRPDHDDLYREELDQAEQDGLVTIRRCYSRVENEPKGYVQHLLKQDTQKLMTLIEKGAHIYVCGDGSQMAPDVERTLRLAYEAEKAASQEESAVWLQKLQDQRRYVKDVW”, the “soluble on expression in E. coli” value was “not soluble”.
Turning to “MAAMFSNTRSVASSSGHIVEFKAGRSRLEAGSGDTMRKVVAEPKKGLVFIKQSNDMLIHFCWKDRETGAVVDDLIIFPDDAEFKAVPGCPDGKVYMLKFKSGDMKLFWIQDSTPDVDKDLVKKVTDALNKPPTSRPAASRSAGSNANTDRQSAGGSLISSSDMNAPLGGIDQGQLMSLIQSLQGGNSDTLPISSVPRGEDASSEADCEPSTNAAEEGSSNPLSLNNPAIQQIFNNLGRSQKKEVAVSLATALSNETVAEVARNHAEELAPHLPTSDDPARELSETVRTPQFRQAADTLGHALQTGQLGPVVAQFGMDEATVGSANQGDIRGFAANLTKAEGGEDAAKTQNSDDDATREPEPKRNRPDNEDMDVD”, the “soluble on expression in E. coli” value is “not soluble”.
Turning to “MGSDKIHHHHHHMTHPSVDQENLPQTASLPENIIEAAITWSIRLDYNDPTPETRQSFDQWLHADPLHRLAWQRVDSLNNLRNDCRSLPSRLAFDTLQEVDSRRQSRKLSRRNAMKLLSLAGITIATGWTVREHTPWQRLLADASTVTGEQRVLHLTDGTVVVLNTDSAVSFDLTEAQRLIVLQRGEMHITTGPDSEVSARIGRKRPFRVRTPFGELQALGTRFVVRLDEQHARVSVQEGAVELHPSAGGSSAIVQAGESRRLTGSSILPEADRYFEEDGWVSGVIAGKNIRLADLVAELSRYRPGYIVCDERVADLPISGIFHVKDTDKALQFLAQTQPVSVMYRTRFWVIVGPKSLYR”, the “soluble on expression in E. coli” value was “not soluble”.
Consider “MGSDKIHHHHHHMFKKVAADVLGLSDVGSVITPKDYDKVDADDYVMHEDGEKIYFLIKSKSDEYCFTNKGLLHLDGTSATSKKRTLRRFSYSKYQIKNVALETAGTIDLDVEIKFQMGDEHYSIDVHKKHIEELKDLYKALLKIEEISYDNDITLQYAHKSLDMASNAFSRISNAQVNLAEQFKEMNEIAFNWLVDTKKQYNVKDYGFVFEKFINN”, for which the “soluble on expression in E. coli” value was “not soluble”.
Consider “TVGCVAVDSHGNLASATSTGGLVNKMVGRIGDTPLIGAGTYANELCAVSATGKGEEIIRATVARDVAALMEFKGLSLKEAADFVIHERTPKGTVGLIAVSAAGEIAMPFNTTGMFRACATEDGYSEIAIWPTT”, for which the “soluble on expression in E. coli” value is listed as “soluble”.
Take “MTYRELVERQLAVRHADLELGLSRAREQEPFVIHVSDLLDKAGIEYAVRMDKDFQTTFHLEYPITNYDTFKRAVWQTLGAYYCVCNDGDGLEIASNRPDGYAVRIVFGDVPV”: the “soluble on expression in E. coli” value is listed as “not soluble”.
With “MAQHVKFHQYFFQWMQLYKLDAVRPVTYRKYEMSHRQLVTLAPDLKMADLSRLTYQQLLNDYAETHERQTTMDFHRHLKGSLIDALEEGFIDRDPTRKAIIKGIKLEHHHHHH”, the “soluble on expression in E. coli” value is recorded as “not soluble”.
Take “MSDISEKFWDASIEELKKGYVFDEEKEEYICLACGETFIKGVIYQDNQILYEAEKFVQLHIQNEHTSMFDYLLNMDKKFTGLTDLQKKMVQFFHMGLNDKEIVKEMDGGSTSTIRNHRFTLREKMKQAKVFLALMELSEEKSKVQTKFVPIHRTATMVDDRYNITEEENDEVLKAHFTEGLDGPLSKFPKKQKRKLIILRHLVKKFDSNKKYTEKEVNTVIENVYPDFVTLRRYLIEYGFLDRTADGSQYWVKL”: the “soluble on expression in E. coli” value is given as “not soluble”.
For the sequence “MSLKFIEEVVVEEFLPTFRSLLAADLRERGLTQHEVAELLGVSQSAVSKYAHGDVTTDDEIAADDRVQELVERTGSGLATGNVSQVQALVEAEVLVRELSTSSDILAERHEAANPALADYDGDFTVHDADSEVRVREHVLSSVRRGVRMLERTSGFATQIPAVGANLVECTPEADTVEDVAGVPGRVLDVMGRTEIPAEPEFGVSAYVATVLLDARAAGVDAHAALNIAYSADTVAALADAGYAVVEFEPEGESTTDDHHIRDAVRDADAVDVLYQTGGYGVEPIVYVLAENAPDAVRMARGLEGHHHHHH”, the “soluble on expression in E. coli” value was “soluble”.
On to “MVRSFIYEPFQIPSGSMMPTLLIGDFILVEKFAYGIKDPIYQKTLIETGHPKRGDIVVFKYPEDPKLDYIKRAVGLPGDKVTYDPVSKELTIQPGCSSGQACENALPVTYSNVEPSDFVQTFSRRNGGEATSGFFEVPKNETKENGIRLSERKETLGDVTHRILTVPIAQDQVGMYYQQPGQQLATWIVPPGQYFMMGDNRDNSADSRYWGFVPEANLVGRATAIWMSFDKQEGEWPTGLRLSRIGGIH”, for which the “soluble on expression in E. coli” value is given as “soluble”.
For “ASMTTPCITILSGHFPKETIYARKTKELVEEYCSIHGYNFYYEESEPLETEEHALHFRRSWIIQQAAEKFPSTEWFLWLDSDVYVNPKNKNKPITSFIDLSDPNILYHTFHEAPWGSYPINTGVKFVHKDALEIEKIVWSLRNEAPWNTFPYEQKTVYEYVFPRIPGRYIVHDPYTLNCIVKAYPEHVKDALFVHMCGTSRAERDEHMEMVAT”, the “soluble on expression in E. coli” value was “soluble”.
For “KGMIRPRGLNQQRYVKEVLSNDINFGIGPAGTGKTYLAVACAVDALEREQIRRILLVRPAVEAGEKLGFLPGDLAQKIDPYLRPLYDALYEMLGFEYVAKLIEKQVIEVAPLAYMRGRTLNNSFIILDESQNTTVEQMKMFLTRIGFGSTAVITGDITQVDLPKGTRSGLTHVIDVLKDVPGISFTHFKPKDVVRHPLVQRIVEAYERFDDQLSDGPSGNNG”, the “soluble on expression in E. coli” value is reported as “soluble”.
Consider “MGSDKIHHHHHHMMNTTETAPVLNPALEDEYSKALDEIKQFGEAQTHTVHDLGSATWAMRKLGELNKEDAEARKVVQANIDQLNEWLQHSLEARQSRRNYLEHEVLAYVANNRKHDPKYKLDTPYGKVSFTVKRKATPAISDETQVLNFIKSNWNESEQTQVIKRTEKVLVSELKKQVTVAGDKVIDEDGQPIPGMHVDPAGTETPHIKPIQMTEALS”, for which the “soluble on expression in E. coli” value was “not soluble”.
Regarding “MGSDKIHHHHHHMNRKLIQIDQLKNQLTQYRPLSESEVKRLREEFIIESSYNSNAIEGNTITLRETVLILKEGMTIAEKPLREHLDIIGFKDAFNYIYELVANNEPLSERTIKDIHSLVLMNNAEGRGVYRKIPVRILGAENEPTAPYLIAEEMQSLIEKYQQKLTALHPIEAISWLHLAFESIHPFIDGNGRTGRLLINFELLKHGYLPVDIKFTHRANYYQCFDDFHKNQQDISRLVELISRYELTELERYLAILEQRT”, the “soluble on expression in E. coli” value is “not soluble”.
Consider “GPLGSDDVEWVVGKDKPTYDEIFYTLSPVNGKITGANAKKEMVKSKLPNTVLGKIWKLADVDKDGLLDDEEFALANHLIKVKLEGHELPADLPPHLVPPSKRRHE”, for which the “soluble on expression in E. coli” value is “soluble”.
“SNAMNHLPEKMRPYRDLLEKSAKEYVKLNVRKGKTGRYDSKIAGDPYFPKHETYPTDENGQPMKLLAQINFSHIPQLDGYPSSGILQFYISVHDDVYGLNFDDRCEQKNFRVIYFENIVENDDELVSDFSFIGTGECDFPILSEAAVEPVKSSEWVLPTDFQFEQYTGMETMEFFGQFGEDEEDIYNELAENGFGHKIGGYASFTQHDPREYAYKEHTIMLLQIDSDDDIDSMWGDVGIANFFITPEDLRKKDFSNVLYNWDCS”: the “soluble on expression in E. coli” value is recorded as “soluble”.
Consider “MSLNYLMKEKYIGLHKFELDTPCLVIDYEKLKHNLEIMQQHGFTWGIGIRPHCKTHKCTQIARLQLEYGAIGISAAKLSEAAALVSKRITNVLITSLIVSEAKYSRLFNCLKSAPDLMLVVDDKDNIRMLNKLGKSLNQPVHVLLDIDSGIGRTGINPEAALEYGHFINGMNWLKLKGIQCYAGHLQHIQNYEERKAFSLQVMEMASRIVKSFRDANLPCEILTGTGTGTFDIDVEASEVTEIQPGSYAVMDVEYGSIGSKNNPSSFQLFKNSMTLLTSVISSNRREHATVDAGTKSIYVDPHHKPHIISHPGLVYDWGGFGDEHGKVFSCEGGSHFLQNGDVLEIIVPHCDPTINLYDKFYITENNVVVDIWDIDMRGKSEGHHHHHH”, for which the “soluble on expression in E. coli” value is “soluble”.
“MIKMIVVLRLGHRPERDKRVTTHVALTARAFGADGIIIASEEDEKVKESVEDVVKRWGGPFFIEFNRNWRKVMKEFTGVKVHLTMYGLHVDDVIEELKEKLKKGEDFMIIVGAEKVPREVYELADYNVAIGNQPHSEVAALAVLLDRLLEGKGLKKEFKGAKIKIVPQARGKKVVEVQGYAEQDKAEGKATPGKNWENSGFTGDNP”: the “soluble on expression in E. coli” value is given as “soluble”.
